The target of data set [1] is DosR M194term (helix alpha10 truncated) D54E;del194-217 (Mycobacterium tuberculosis) (UniProt P9WMF9). In words: EMSA. In general terms: A gel shift assay detects complexes by their altered migration in electrophoresis.
Data set [2] concerns the target DosR (D54E, activated form; called DosR/wild type in EMSA) D54E (Mycobacterium tuberculosis) (UniProt P9WMF9). Nature of the data set: EMSA.

Consider “GGCGGTTGGCAGACAACAGGGTCAATGGTCCCCAAGTGGATCACCGACGGGCGCGGACAAATGGCCCGCGCTTCGGGGACTTCTGTCCCTAGCCCTGGCCACGATGGGCTGGTCGGATCAAAGGCATCCGTTTCCATCGATTAGGAGGCAGGCACGTACGAAGGAAGGAT (double strand) [hspX promoter PCR product]”, for which the binding entry in data set [1] is “binds more weakly”; in data set [2] it was “binds”.

Source of the values: article doi:10.1101/2025.10.11.681782.
